Assay results: the DeepSol protein solubility set

Assay: soluble on expression in E. coli; label from the status in PepcDB or PDB records

Soluble on expression in E. coli, not soluble:
MGSDKIHHHHHHMRKDKNGTQEPKAKYRVRNWAAYNAGLINRGNITMWIGDDALANMPDTEPTRGRSRLYSDALIQALLGLKTVFHLPLRALQGFAQSLRDLAFAELPVPNYTTVCRRAQALQVKLPVIHSDEPLHLVVDSTGAKVCGEGEWKVRQHGYSKRRTWRKVHLALDANTGQLRAALMTHQDVADGEVLPELLEQISADESIDTIGGDGAYDTQACYASITARGALPSIPPREGAVHWPTTTPGASRRNAALDAIAQGSRREWKQQSGYHRRSLAENAMYRLKTLTGPCLWARRTDTQATEVAVRVGVLNRMAELSRPQSVRIARDHEQRHHFVLTPDLCNNVHSSAERRQGRVSCAMHATI, MGSDKIHHHHHHMRKLPPLRALQIFEAAARHAHFSRAATELCITQSAVSHQVRLLEAHFGERLFIREGRQLCLTSKGNVLYHELERIFNELNDLSMQITGDCNDQLRLAVYSSFAIKWLIPRLSDFHRLHPQIKIRLDMITDDPQMSDSVADMFITGQSGQPGYVHRMLHQERLIPVICPGLLNTDHSALSVLRQHALLTVDEGPIGFDWERWLKVNSISIAATQQQHVFSHVLLAIEAAIAGQGIALASDFMVERDISKGALVALDLPAMLTGFEFNFSCKQRRLKEPAIAAFVQWLTKK, MGSDKIHHHHHHMRLAFFGDVHGNFEALKAVLEDMENKGVDEVFCLGDLVGYGPDPEAVVQTIMEKNIKTIMGNYDDAVGYSKESCGCSYAPGRETEVGDISLKWSIENTSEKTREFLRNLPKKLSFEVEGVRFLLVHGSPLNELLEYVKPNTPPDRLKKIVESVEENVVVNGHTHLPMVKWVMGKLVLNPGSAGRPKDGDPRASYMIVDVENGTVSFEIVRVRYDVKTTVEKIARNGLPVELATVLALGQTFDMGPGKVTFTLGR, MGSDKIHHHHHHMRLNLRQIEVFRAIMLTGSISGAAKLLHVSQPAVSRLISYAEQRLGLALFERIKGRLYPTPEAQRLFVEVNAVYQGVQRVNEIAEDLIENRMGHLRIACSPNLGQSLLPRAIAAFYERLPDVRIILHTMIPNVLLQAVLTQQVELGIAFLQDTHPNVESQLLYENRMVAAVPASHPFARRKTLAVRDLANQPLIGYGSDIPLGQLVRRLFSDESLVPQVKVEVQQAHVACALAQAGTGIALIDELTVAGPVWPQIVVKPIVPTLAAPVSVLHPVPTPLSRLAHAFIDTLHSLAAHA, MGSDKIHHHHHHMRNPPFIVEYELTLRCNFRCKHCYCEAGKPHLEELSFEEIKELILDMKELGTWALDIVGGEPLLHPQILDILAFGKEVGQRLMINTNGSLATKEMVQKIKKANPDVLIGVSLEGPDPETNDFVRGTGNFKRAVQGIKNFVDEGFQVTILNVINKRNWRKFEDMVKLALELGVNALYVDRFIPVGRGMIHARELDMNPEEWRVAIKHVLGVIENYKNHLTFYVEESISGKPCSAGITHASVLADGTVVPCGHFRYRKEFYMGNVREKKFSEIWHEYTPIPSPASCQQCPILNECGGGCKAYYLLREHEKDEAICFLNKERYNIK, MGSDKIHHHHHHMRRALRPSMELISARTSSTSSIWTPRVSQSSELVFDATGCCSSLSGSSACDRGDGIVRGITMDRQRLQALGHKVRMIPAQFVKPHVKSNKSDIIDAEAIAEAATRPTMRFAAIKSEEQADLQALHRVRDQMIGTRTRLINQMGAFCLEYDIALRQGAGLFKLDLPLVLDDLE, MGSDKIHHHHHHMRRTYLTLSEEDKDYLKTLSKKRTIQAQIVDRAKILLYKSDGMTFNAIAEKLAISSATVRLCVSKYYEGGIEKALFDTQRPGRPSEITDDAKAWIINLACQRPVELGYAQELWTLNALHKHIQKHAEEAGYPRLTTITKPYIQKFLKEQDIKPFKIRYYCEKRDQDFESKMHEVLLVYKQIEMQFDENGTLIVPDDYKLTITVSYDEKPGIQAISNTAPDLRPTTENGEVYRDAEYKRLGTLSLLAGIDLLTGEAIPLVSETHKSSDFIEFLKIRDKKYPLQDTIRIILDNHSAHTSKETQRFLDTMPKGRFKFVFTPKHGSWLNMIESFFSKMTKQMLRGIRVKTKQELEERIYQYFEEVNREPVVYHWKYKMDEIEKKKCCTELWMPFSAH
